Measured values: paper PMC5387736, “SnoN Stabilizes the SMAD3/SMAD4 Protein Complex” (Scientific Reports, 2017)
Blank lines part the entries; values can stand above or below the molecule they belong to.

B2: His-tagged MH2 domain of SMAD4 (I314-Q549) (domain or fragment, UniProt Q13485 314-549, looked up)
chain: ISNHPAPEYWCSIAYFEMDVQVGETFKVPSSCPIVTVDGYVDPSGGDRFCLGQLSNVHRTEAIERARLHIGKGVQLECKGEGDVWVRCLSDHAVFVQSYYLDREAGRAPGDAVHKIYPSAYIKVFDLRQCHRQMQQQAATAQAAAAAQAAAVAGNIPGPGSVGGIAPAISLSAAAGIGVDDLRRLCILRMSFVKGWGPDYPRQSIKETPCWIEIHLHRALQLLDEVLHTMPIADPQ
notes: SMAD4, MH2 domain, residues I314-Q549; Cloned in pNIC28Bsa4; also called ^HisSMAD4; not shown: His6, N-terminal, kept

Legend:
SnoN (M1-S356), untagged = molecular target: T1, SnoN (M1-S356), untagged (UniProt P12757-1 1-356); assay: fluorescence labelling of cysteines (IRDye 800CW maleimide) and gel scanning; Ni-NTA eluate of the isolated SnoN-SMAD3-SMAD4 complex, boiled in 1% SDS, labelled, SDS-PAGE, near-infrared imaging; three measurements
T1 construct: Cloned in pNIC28Bsa4; the asterisk marks the TEV cut, so SM probably remains at the N-terminus after cleavage; also called truncated SnoN (M1-S356, 38.6 kDa); not shown: His6, N-terminal, cleaved
T1 sequence (looked up): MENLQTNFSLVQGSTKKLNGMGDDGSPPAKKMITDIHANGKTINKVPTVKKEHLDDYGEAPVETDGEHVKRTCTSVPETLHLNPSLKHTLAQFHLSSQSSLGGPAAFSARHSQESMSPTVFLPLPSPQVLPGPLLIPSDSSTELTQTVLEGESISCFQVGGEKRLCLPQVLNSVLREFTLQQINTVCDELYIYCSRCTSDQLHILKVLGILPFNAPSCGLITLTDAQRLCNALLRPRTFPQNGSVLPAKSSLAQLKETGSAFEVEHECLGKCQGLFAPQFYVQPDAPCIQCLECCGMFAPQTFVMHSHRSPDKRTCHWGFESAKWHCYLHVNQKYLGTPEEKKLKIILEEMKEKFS

[1] = molecular target: Strep II-tagged MH2 domain of SMAD3 (S423E, S425D), E145-D425; assay: SEC; gel filtration of the single proteins in buffer A (Superdex 200 for SMAD4 and SnoN constructs, Sephacryl 300 for SMAD3); oligomeric state from the retention volume
[2] = molecular target: B2; assay: SPR; BIAcore 2000; SMAD4 (I314-Q549) amine-coupled on CM5 (about 1300 RU); SnoN SAND domain 0-500 nM injected; 10 mM HEPES pH 7.4, 150 mM NaCl, 0.005% TWEEN-20, 0.5 mM TCEP; room temperature; one-step binding model; conditions: both partners purified
[3] = molecular target: B2; assay: crystal structure; SnoN SAND domain with SMAD4 MH2 domain, complex reconstituted 1:1; sitting drop, 2.8-3.3 M NaCl, 0.1 M Bis-Tris pH 5.5, 20 °C; 2.6 Å

stoichiometry N (SMAD3 per SnoN) (SnoN (M1-S356), untagged): 2.1
stoichiometry N [1]: 3
Molecule: Strep II-tagged MH2 domain of SMAD3 (S423E, S425D), E145-D425 (domain or fragment)

Kd [2]: 1100 nM
koff [2]: 0.129 s⁻¹
kon [2]: 120000 M⁻¹ s⁻¹
B1: SnoN SAND-domain (T238-S356) with C-terminal biotinylation sequence (domain or fragment, UniProt P12757-1 238-356, looked up)
chain: TFPQNGSVLPAKSSLAQLKETGSAFEVEHECLGKCQGLFAPQFYVQPDAPCIQCLECCGMFAPQTFVMHSHRSPDKRTCHWGFESAKWHCYLHVNQKYLGTPEEKKLKIILEEMKEKFS
notes: SnoN, SAND domain, residues T238-S356; Cloned in pNicBio3 for the SPR analysis; In the SPR it was the analyte, SMAD4 was amine-coupled; also called SnoN (T238-S356)

Molecule: B2
stoichiometry N (SnoN (M1-S356), untagged; both partners purified): 1.2 SMAD4 per SnoN
stoichiometry N [3]: 3
